Measurements taken from publication PMC5339286, “A Novel Soybean ERF Transcription Factor, GmERF113, Increases Resistance to Phytophthora sojae Infection in Soybean”.
Positions count from the first letter of the chain named.

Target: GmERF113 (Glycine max (soybean) cv. Suinong 10, UniProt I1ML94 1-260)
Assay: EMSA; EMSA as described by Liu et al. (2006); buffer, salt, pH and temperature not stated
Settings: protein: recombinant

Sequence of GmERF113 (I1ML94 entry or part of it): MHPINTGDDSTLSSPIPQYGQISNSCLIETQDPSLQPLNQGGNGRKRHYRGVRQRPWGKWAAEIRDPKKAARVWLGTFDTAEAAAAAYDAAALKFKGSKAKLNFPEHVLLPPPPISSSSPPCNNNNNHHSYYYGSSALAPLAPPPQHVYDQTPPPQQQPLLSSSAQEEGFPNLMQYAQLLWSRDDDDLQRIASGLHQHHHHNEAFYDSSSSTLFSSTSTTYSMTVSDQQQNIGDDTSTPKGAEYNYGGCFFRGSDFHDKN

B1: GCC probe (GCC-box) (dsDNA)
DNA 1: ATCCATAAGAGCCGCCACTAAAATAAGACCGATCAA
DNA 2: TTGATCGGTCTTATTTTAGTGGCGGCTCTTATGGAT
Q: Does B1 bind?
A: Result: binds

B2: mGCC probe (mutated GCC-box) (dsDNA)
DNA 1: B1 DNA 1 with G11T, G14T
DNA 2: B1 DNA 2 with C23A, C26A
Q: Does B2 bind?
A: Result: no binding
